The text below walks through data of patent US20190056396A1 (GLENMARK PHARMACEUTICALS S A, published 2019).

For test [1], the target named is T1, Protein A (UniProt P38507 37-477).
T1 construct: also called Protein A biosensors
The test can be described thus: flow cytometry, FITC-labelled Protein A on CHO-S cells transfected with pHC-M1M2 + pLC.

In test [2] the target is T1, Protein A. The test can be described thus: Octet QK, Protein A biosensors, supernatant day 6. A general note: In BLI a coated tip is dipped into the sample, and binding shifts an interference pattern.

B1: heavy chain-light chain homodimer of the BEAT antibody displayed on the cell membrane of CHO-S cells via the M1M2 transmembrane region (pHC-M1M2 + pLC) (antibody)
heavy: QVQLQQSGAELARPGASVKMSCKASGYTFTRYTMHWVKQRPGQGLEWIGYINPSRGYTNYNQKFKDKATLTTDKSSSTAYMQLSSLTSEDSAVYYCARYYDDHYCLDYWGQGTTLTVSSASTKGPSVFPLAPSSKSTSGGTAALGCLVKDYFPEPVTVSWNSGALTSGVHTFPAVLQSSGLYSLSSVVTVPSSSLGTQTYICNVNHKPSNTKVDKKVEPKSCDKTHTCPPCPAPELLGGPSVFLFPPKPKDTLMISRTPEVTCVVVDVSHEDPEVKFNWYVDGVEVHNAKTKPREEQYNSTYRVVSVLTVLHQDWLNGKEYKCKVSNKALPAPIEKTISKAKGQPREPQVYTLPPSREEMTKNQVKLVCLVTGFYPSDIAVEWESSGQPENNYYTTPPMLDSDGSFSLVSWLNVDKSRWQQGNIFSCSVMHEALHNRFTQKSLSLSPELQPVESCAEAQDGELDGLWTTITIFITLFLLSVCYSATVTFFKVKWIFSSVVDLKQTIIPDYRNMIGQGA
light: QIVLTQSPAIMSASPGEKVTMTCSASSSVSYMNWYQQKSGTSPKRWIYDTSKLASGVPAHFRGSGSGTSYSLTISGMEAEDAATYYCQQWSSNPFTFGSGTKLEINRTVAAPSVFIFPPSDEQLKSGTASVVCLLNNFYPREAKVQWKVDNALQSGNSQESVTEQDSKDSTYSLSSTLTLSKADYEKHKVYACEVTHQGLSSPVTKSFNRGEC
notes: also called Fab-DIM; Fab homodimer
Take B1: the binding result with Protein A [1] is “no binding”.

B2: secreted heavy chain-light chain homodimer of the BEAT antibody (antibody)
heavy: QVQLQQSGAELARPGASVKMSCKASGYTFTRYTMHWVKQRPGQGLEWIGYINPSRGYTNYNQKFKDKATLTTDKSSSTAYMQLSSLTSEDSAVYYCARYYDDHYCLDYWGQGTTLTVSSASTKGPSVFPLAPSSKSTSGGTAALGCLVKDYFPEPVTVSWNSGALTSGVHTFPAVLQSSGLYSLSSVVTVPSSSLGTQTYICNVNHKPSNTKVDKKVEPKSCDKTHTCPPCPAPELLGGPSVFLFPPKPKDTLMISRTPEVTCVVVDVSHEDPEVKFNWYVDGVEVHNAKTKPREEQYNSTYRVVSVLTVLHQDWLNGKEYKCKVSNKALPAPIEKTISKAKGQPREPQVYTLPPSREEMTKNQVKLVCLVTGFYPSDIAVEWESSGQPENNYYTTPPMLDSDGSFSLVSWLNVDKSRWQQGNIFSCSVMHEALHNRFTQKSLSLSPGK
light: QIVLTQSPAIMSASPGEKVTMTCSASSSVSYMNWYQQKSGTSPKRWIYDTSKLASGVPAHFRGSGSGTSYSLTISGMEAEDAATYYCQQWSSNPFTFGSGTKLEINRTVAAPSVFIFPPSDEQLKSGTASVVCLLNNFYPREAKVQWKVDNALQSGNSQESVTEQDSKDSTYSLSSTLTLSKADYEKHKVYACEVTHQGLSSPVTKSFNRGEC
notes: as for B1
For B2, the binding result with Protein A [2] is on record as “no binding”.
